Data taken from the supplement of paper PMC9233669.
Variants at the floor of the assay were thinned out.

Tests used:
biotinyl-Phe-oxazolone = test: self-aminoacylation, catalytic enhancement (BFO) (fold over background); higher = more active; k-Seq, kA / k0A0; sequences stand for … in GGGAAUGGAUCCACAUCUACGAAUUC…UUCACUGCAGACUUGACGAAGCUG
Outline: (§1)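 Mutagenized RNA pools with a 21-nt variable region (0.43 μM) reacted with each biotinyl-aminoacyl-oxazolone at 2–1250 μM. Reactions ran in 50 μL HEPES/NaCl/KCl/MgCl2/CaCl2 buffer with 5% acetonitrile, pH 6.9–7.0, for 90 minutes at room temperature. Streptavidin-captured RNA was quantified by triplicate qPCR and Illumina sequencing, and per-sequence fraction reacted was fit to a pseudo-first-order model with 1000 bootstraps. Catalytic enhancement is median kA divided by the uncatalyzed rate, the low-activity peak of a bimodal Gaussian fit.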

biotinyl-Trp-oxazolone = test: self-aminoacylation, catalytic enhancement (BWO) (fold over background); higher = more active; k-Seq, kA / k0A0; sequences stand for … in GGGAAUGGAUCCACAUCUACGAAUUC…UUCACUGCAGACUUGACGAAGCUG
Outline: as §1

biotinyl-Met-oxazolone = test: self-aminoacylation, catalytic enhancement (BMO) (fold over background); higher = more active; k-Seq, kA / k0A0; sequences stand for … in GGGAAUGGAUCCACAUCUACGAAUUC…UUCACUGCAGACUUGACGAAGCUG
Outline: as §1

biotinyl-Ile-oxazolone = test: self-aminoacylation, catalytic enhancement (BIO) (fold over background); higher = more active; k-Seq, kA / k0A0; sequences stand for … in GGGAAUGGAUCCACAUCUACGAAUUC…UUCACUGCAGACUUGACGAAGCUG
Outline: as §1

biotinyl-Leu-oxazolone = test: self-aminoacylation, catalytic enhancement (BLO) (fold over background); higher = more active; k-Seq, kA / k0A0; sequences stand for … in GGGAAUGGAUCCACAUCUACGAAUUC…UUCACUGCAGACUUGACGAAGCUG
Outline: as §1

biotinyl-Val-oxazolone = test: self-aminoacylation, catalytic enhancement (BVO) (fold over background); higher = more active; k-Seq, kA / k0A0; sequences stand for … in GGGAAUGGAUCCACAUCUACGAAUUC…UUCACUGCAGACUUGACGAAGCUG
Outline: as §1

Sequence	self-aminoacylation (biotinyl-Phe-oxazolone)	self-aminoacylation (biotinyl-Trp-oxazolone)	self-aminoacylation (biotinyl-Met-oxazolone)	self-aminoacylation (biotinyl-Ile-oxazolone)	self-aminoacylation (biotinyl-Leu-oxazolone)	self-aminoacylation (biotinyl-Val-oxazolone)
AAGUUUGCUAAAAGUCGGAAG [Fam3.1 aminoacylation ribozyme variant]	5.57	1.22	0.755	0.814	0.778	0.924
AAGUUUGCUAAAUGUCGCAAG [Fam3.1 aminoacylation ribozyme variant]	0.96	0.74	0.876	1	1.1	0.837
AAGUUUGCUAACAGUCACAAG [Fam3.1 aminoacylation ribozyme variant]	2.73	1.06	1.04	0.92	1.12	0.942
AAGUUUGCUAACAGUCGAAAG [Fam3.1 aminoacylation ribozyme variant]	5.73	2	0.838	0.878	0.689	0.848
AAGUUUGCUAACAGUCGCAAG [Fam3.1 aminoacylation ribozyme variant]	21.1	5.51	1.29	1.18	0.961	1.06
AAGUUUGCUAACAGUCGCCAG [Fam3.1 aminoacylation ribozyme variant]	1.8	2.07	1.45	1.61	1.17	1.33
AAGUUUGCUAACAGUCGCGAG [Fam3.1 aminoacylation ribozyme variant]	1.64	2.46	0.591	1.02	1.24	1.12
AAGUUUGCUAAGAGUAGCAAG [Fam3.1 aminoacylation ribozyme variant]	1.3	1.17	1.1	0.857	1.21	0.727
AAGUUUGCUAAGAGUCGCAAA [Fam3.1 aminoacylation ribozyme variant]	2.02	1.12	1.25	1.01	0.88	0.889
AAGUUUGCUAAGAGUCGUAAG [Fam3.1 aminoacylation ribozyme variant]	7.41	2.31	0.708	0.61	0.535	0.757
AAGUUUGCUAAUAAUCACAAG [Fam3.1 aminoacylation ribozyme variant]	1.25	1.1	1.05	1.08	1.08	0.832
AAGUUUGCUAAUAAUCGCAAG [Fam3.1 aminoacylation ribozyme variant]	1.6	0.876	0.637	0.735	0.602	0.746
AAGUUUGCUAAUAAUCGCGAG [Fam3.1 aminoacylation ribozyme variant]	1.24	1.47	0.863	0.983	0.744	0.808
AAGUUUGCUAAUACUCGCCAG [Fam3.1 aminoacylation ribozyme variant]	0.993	0.773	0.629	0.916	0.655	0.836
AAGUUUGCUAAUACUUGCAAG [Fam3.1 aminoacylation ribozyme variant]	0.999	0.685	0.582	0.743	0.586	0.625
AAGUUUGCUAAUAGACGCAAG [Fam3.1 aminoacylation ribozyme variant]	0.87	0.574	0.477	0.526	0.459	0.587
AAGUUUGCUAAUAGACGCACG [Fam3.1 aminoacylation ribozyme variant]	0.811	0.572	0.472	0.543	0.365	0.528
AAGUUUGCUAAUAGACGCUAG [Fam3.1 aminoacylation ribozyme variant]	0.777	0.501	0.754	0.547	0.495	0.654
AAGUUUGCUAAUAGCAGCAAG [Fam3.1 aminoacylation ribozyme variant]	1.12	0.754	0.683	0.793	0.646	0.851
AAGUUUGCUAAUAGCCACAAG [Fam3.1 aminoacylation ribozyme variant]	1.59	0.834	0.55	0.821	0.833	0.827
AAGUUUGCUAAUAGCCGCACG [Fam3.1 aminoacylation ribozyme variant]	1.41	2.52	1.08	1.31	1.32	1.21
AAGUUUGCUAAUAGGCGCAAU [Fam3.1 aminoacylation ribozyme variant]	1.52	0.968	1.71	1.6	1.46	1.58
AAGUUUGCUAAUAGGCGCACG [Fam3.1 aminoacylation ribozyme variant]	2.42	0.485	0.568	0.981	0.865	0.833
AAGUUUGCUAAUAGGCGGAAG [Fam3.1 aminoacylation ribozyme variant]	0.916	0.922	0.721	0.806	0.675	0.89
AAGUUUGCUAAUAGUACCAAG [Fam3.1 aminoacylation ribozyme variant]	1.41	0.838	1.22	1.14	0.791	1.15
AAGUUUGCUAAUAGUAGCCAG [Fam3.1 aminoacylation ribozyme variant]	1.04	2.24	0.77	0.868	0.78	0.769
